Here are results for twelve sequences from patent US20170166895.

In data set [1] the target is T1, Complement component 3 (C3) (Homo sapiens) (UniProt P01024+P01024). The data set can be described thus: inhibition. Conditions: P = NapdU (all U), 3'-3' idT, hemolysis, 20 nM C3, GVB++, 37 C.
Data set [2] addresses T1, Complement component 3 (C3) (Homo sapiens). The data set can be described thus: filter. To be noted: 3'-3' idT.

T1 sequence (P01024 23-667, chain 1 of 2): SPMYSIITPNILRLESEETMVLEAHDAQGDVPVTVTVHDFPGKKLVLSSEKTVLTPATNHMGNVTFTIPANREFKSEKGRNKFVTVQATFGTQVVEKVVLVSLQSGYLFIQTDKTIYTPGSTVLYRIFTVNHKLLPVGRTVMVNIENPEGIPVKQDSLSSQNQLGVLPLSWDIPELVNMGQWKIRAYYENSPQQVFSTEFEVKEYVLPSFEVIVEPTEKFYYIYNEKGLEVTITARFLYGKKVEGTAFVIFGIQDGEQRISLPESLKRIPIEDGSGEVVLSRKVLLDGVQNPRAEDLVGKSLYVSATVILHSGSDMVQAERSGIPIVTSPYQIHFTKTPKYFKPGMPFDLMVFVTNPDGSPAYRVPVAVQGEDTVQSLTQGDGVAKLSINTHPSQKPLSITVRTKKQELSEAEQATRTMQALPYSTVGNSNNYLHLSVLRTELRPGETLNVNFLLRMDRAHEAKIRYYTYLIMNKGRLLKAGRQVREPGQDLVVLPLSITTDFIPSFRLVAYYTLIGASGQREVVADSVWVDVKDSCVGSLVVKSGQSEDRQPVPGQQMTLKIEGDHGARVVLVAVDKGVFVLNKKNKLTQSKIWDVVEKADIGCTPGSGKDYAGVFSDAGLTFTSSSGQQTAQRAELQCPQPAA
T1 sequence (P01024 672-1663, chain 2 of 2): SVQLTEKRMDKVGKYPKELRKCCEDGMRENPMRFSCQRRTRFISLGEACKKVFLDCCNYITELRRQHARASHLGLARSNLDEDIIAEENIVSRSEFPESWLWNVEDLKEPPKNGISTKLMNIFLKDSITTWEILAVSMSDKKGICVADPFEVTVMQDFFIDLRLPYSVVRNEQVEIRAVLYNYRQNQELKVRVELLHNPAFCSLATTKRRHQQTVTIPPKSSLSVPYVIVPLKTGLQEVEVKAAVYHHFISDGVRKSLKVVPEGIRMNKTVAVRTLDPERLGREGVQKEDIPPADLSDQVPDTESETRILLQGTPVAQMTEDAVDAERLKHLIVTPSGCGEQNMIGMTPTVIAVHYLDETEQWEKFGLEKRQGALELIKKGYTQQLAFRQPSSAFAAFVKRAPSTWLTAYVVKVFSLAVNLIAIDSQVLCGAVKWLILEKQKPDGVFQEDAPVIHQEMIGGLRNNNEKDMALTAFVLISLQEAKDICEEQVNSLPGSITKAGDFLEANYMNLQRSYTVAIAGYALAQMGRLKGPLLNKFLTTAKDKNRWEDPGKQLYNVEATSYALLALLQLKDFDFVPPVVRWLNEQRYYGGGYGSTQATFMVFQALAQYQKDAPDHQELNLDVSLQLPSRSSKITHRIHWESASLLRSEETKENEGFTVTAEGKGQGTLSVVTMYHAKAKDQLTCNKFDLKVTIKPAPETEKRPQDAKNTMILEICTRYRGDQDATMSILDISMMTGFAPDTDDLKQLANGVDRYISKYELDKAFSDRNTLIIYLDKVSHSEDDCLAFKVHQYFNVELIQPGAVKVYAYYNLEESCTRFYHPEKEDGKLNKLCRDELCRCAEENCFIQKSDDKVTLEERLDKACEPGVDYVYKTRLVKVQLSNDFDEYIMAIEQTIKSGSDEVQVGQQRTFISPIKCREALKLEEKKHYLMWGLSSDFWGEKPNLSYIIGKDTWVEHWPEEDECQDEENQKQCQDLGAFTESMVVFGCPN

A word on the IC50: it is the concentration needed to halve the response being measured. In general, Kd refers to a measure of binding affinity in units of concentration. Low readings indicate higher affinity, high ones lower affinity. In data set [1], “CGGUGACUCAAUAGUCCGUACGUUCCCG [8491-94_53]” showed a half-maximal inhibitory concentration (IC50) of 17.1 nM. Moreover, in data set [2] (all U = NapdU, SB18T0.01, 37C), the Kd is 0.0334 nM. Turning to “CCGGUGACUCAAUAGUCCGUACGUUCCCGG [8491-94_26]”, the IC50 in data set [1] was 15.1 nM. The sequence also displayed a Kd in data set [2] (all U = NapdU, SB18T0.01, 37C) of 0.0511 nM. Consider “CCGGUGACUCAAUAGUCCGUACGUUCCCG [8491-94_27]”, for which the half-inhibitory concentration (IC50) in data set [1] was found to be 24.6 nM. In addition, in data set [2] (all U = NapdU, SB18T0.01, 37C), the Kd worked out at 0.0658 nM. For “CGGUGACUCAAUAGUCCGUACGUUCCCG [8491-94_90]”, the 50% inhibitory concentration (IC50) in data set [1] (2'-OMe at 1,2,3,5,7,10,13,26,27,28) was determined as 18.9 nM. Further, the Kd in data set [2] (all U = NapdU, 2'-OMe at 1,2,3,5,7,10,13,26,27,28, SB18T0.01, 37C) worked out at 0.00424 nM. With “CGGUGACUCAAUAGUCCGUACGUUCCCG [8491-94_97]”, in data set [1] (2'-OMe at 1,2,3,5,7,9,10,13,19,20,22,23,24,25,26,27,28, C3a release in 34% serum IC50 3 uM), the half-maximal inhibitory concentration (IC50) worked out at 15.6 nM. Moreover, the dissociation constant Kd in data set [2] (all U = NapdU, 2'-OMe at 1,2,3,5,7,9,10,13,19,20,22-28, SB18T0.01, 37C) turned out to be 0.0549 nM. “CGGUGACUCAAUAGUCCGUACGUUCCCG [8491-94_65]” gave a Kd in data set [2] (P = NapdU (all U), 2'-OMe C7, SB18T0.01, 5 mM MgCl2, 37 C) of 0.0316 nM. That is a picomolar value.

Consider “CGGUGACUCAAUAGUCCGUACGUUCCCG [8491-94_67]”, for which the Kd in data set [2] (P = NapdU (all U), 2'-OMe C9, SB18T0.01, 5 mM MgCl2, 37 C) stood at 0.0699 nM. “CCCCGGUGACUCAAUAGUCCGUACGUUCCCGG [8491-94_25]” had a Kd in data set [2] (all U = NapdU, SB18T0.01, 37C) of 0.0928 nM. Sequence CGGUGACUUAGUCCGUACGUUCCCG [8491-94_57] gave a Kd in data set [2] (all U = NapdU, hexaethylene glycol (Heg) replaces C9-A10-A11, SB18T0.01, 37C) of 0.245 nM. In turn, “CGGUGACUCAAUAGUCCGUACGUUCCCG [8491-94_88]” came in with a Kd in data set [2] (all U = NapdU, 2'-OMe at 1,3,5,7,13,28, SB18T0.01, 37C) of 0.0248 nM. Regarding “CGGUGACUCAAUAGUCCGUACGUUCCCG [8491-94_78]”, in data set [2] (P = NapdU (all U), 2'-OMe A20, SB18T0.01, 5 mM MgCl2, 37 C), the Kd was 0.0718 nM.

In data set [2] (all P = NapdU, T = dT, 2'-OMe at 2,3,5,7,9,10,13,19,20,22-28, C3-spacer replaces C17, SB18T0.01, 37C), “TGGUGACUCAAUAGUCGUATGUUCCCA [8491-94_131]” displayed a Kd of 5.64 nM.
